Biological target: 53BP1 (p53-binding protein 1) (human, UniProt Q12888 1-1972, limits assumed)
Experiment: cell-based or functional assay

Chain of 53BP1 (p53-binding protein 1) (Q12888 whole entry): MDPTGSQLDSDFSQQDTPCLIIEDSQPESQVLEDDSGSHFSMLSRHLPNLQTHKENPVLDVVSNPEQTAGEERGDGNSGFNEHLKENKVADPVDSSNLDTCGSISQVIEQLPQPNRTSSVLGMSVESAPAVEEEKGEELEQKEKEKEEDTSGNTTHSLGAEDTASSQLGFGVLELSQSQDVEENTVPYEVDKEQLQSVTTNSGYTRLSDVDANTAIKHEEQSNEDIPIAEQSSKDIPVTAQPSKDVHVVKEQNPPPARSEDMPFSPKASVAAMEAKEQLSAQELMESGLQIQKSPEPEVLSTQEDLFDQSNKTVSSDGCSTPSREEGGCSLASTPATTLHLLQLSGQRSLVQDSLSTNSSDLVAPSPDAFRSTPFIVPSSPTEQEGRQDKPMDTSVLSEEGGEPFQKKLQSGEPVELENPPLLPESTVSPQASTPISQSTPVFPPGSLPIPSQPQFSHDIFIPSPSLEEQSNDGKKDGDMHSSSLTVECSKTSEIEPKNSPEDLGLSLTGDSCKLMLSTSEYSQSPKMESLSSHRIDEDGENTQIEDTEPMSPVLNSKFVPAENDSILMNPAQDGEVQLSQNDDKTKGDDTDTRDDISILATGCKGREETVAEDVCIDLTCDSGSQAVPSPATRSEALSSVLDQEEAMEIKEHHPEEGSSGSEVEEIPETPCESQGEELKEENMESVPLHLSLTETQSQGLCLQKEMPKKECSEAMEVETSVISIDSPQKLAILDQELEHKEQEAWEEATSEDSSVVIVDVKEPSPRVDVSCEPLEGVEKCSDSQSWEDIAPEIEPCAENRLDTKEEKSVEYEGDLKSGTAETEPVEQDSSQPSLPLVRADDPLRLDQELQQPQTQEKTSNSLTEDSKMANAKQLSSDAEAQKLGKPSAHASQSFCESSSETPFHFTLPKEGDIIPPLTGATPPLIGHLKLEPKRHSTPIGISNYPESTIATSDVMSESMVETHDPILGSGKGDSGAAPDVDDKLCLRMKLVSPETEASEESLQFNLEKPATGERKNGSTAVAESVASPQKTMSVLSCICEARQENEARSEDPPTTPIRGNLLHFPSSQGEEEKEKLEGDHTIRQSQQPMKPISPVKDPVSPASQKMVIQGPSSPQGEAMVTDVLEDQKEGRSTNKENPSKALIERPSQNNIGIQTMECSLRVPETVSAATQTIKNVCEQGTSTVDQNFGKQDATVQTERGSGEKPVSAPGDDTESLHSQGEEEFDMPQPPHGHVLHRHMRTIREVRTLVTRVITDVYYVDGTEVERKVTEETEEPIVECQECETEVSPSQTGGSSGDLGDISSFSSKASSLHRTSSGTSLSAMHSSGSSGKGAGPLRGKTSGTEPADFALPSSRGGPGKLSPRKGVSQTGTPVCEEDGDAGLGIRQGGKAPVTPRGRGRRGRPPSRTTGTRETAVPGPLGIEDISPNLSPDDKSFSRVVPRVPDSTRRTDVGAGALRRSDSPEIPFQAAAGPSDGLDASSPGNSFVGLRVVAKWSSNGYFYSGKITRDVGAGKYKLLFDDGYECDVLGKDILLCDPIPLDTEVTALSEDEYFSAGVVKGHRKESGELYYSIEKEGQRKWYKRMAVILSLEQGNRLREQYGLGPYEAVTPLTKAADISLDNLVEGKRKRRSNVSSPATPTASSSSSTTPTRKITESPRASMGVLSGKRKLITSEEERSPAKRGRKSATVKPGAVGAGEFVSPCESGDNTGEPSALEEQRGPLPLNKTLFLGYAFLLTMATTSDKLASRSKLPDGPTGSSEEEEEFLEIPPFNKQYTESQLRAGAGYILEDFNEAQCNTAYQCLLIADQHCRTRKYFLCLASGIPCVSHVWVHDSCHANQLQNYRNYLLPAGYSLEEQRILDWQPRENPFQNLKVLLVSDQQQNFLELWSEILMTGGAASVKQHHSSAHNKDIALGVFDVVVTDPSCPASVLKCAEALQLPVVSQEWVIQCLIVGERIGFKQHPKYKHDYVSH

B1: i53 polypeptide (polypeptide inhibitor of 53BP1) (designed binder)
chain: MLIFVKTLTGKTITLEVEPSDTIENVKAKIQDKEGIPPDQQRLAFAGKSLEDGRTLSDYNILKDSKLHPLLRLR
INDELs due to NHEJ repair (+/-1 nt), T107 RNP+AAV.310, NGS: 1.3 fold reduction
